Columns and labels:
[1] = target: KDR on human umbilical vein endothelial cells (HUVEC) (human, UniProt P35968 20-1356); experiment: cell-based or functional assay
[2] = target: T1, soluble fusion protein KDR-alkaline phosphatase (AP) (human, UniProt P35968 20-764); experiment: BIAcore SPR, KDR-AP immobilized on the chip, antibody injected
T1 construct: Expressed in stably transfected NIH 3T3 cells; also called KDR-AP; soluble KDR; not shown: alkaline phosphatase (AP)
Protocol: (§1) The binding kinetics of the diabody and its parent scFv to KDR and Flt-1 were measured using a BIAcore biosensor (Pharmacia Biosensor). KDR-AP or Flt-1-Fc fusion protein was immobilized onto a sensor chip and soluble antibodies were injected at concentrations ranging from 1.5 nM to 100 nM. Sensorgrams were obtained at each concentration and were analyzed with, BIA Evaluation 2.0, a program to determine the rate constants kon and koff. The affinity constant, Kd, was calculated from the ratio of rate constants koff/kon.

[3] = target: T1, soluble fusion protein KDR-alkaline …; experiment: direct binding ELISA on immobilized KDR, detection with anti-E tag antibody-HRP, A450
Protocol: (§2) Two assays were carried out to determine the dual antigen binding capability of the diabody. First, a cross-linking assay was used to investigate whether the diabody is capable of binding both of its target antigens simultaneously. Briefly, the diabody or its parent scFv were first incubated in a 96-well Maxi-sorp microtiter plate (Nunc, Roskilde, Denmark) precoated with Flt-1-Fc fusion protein (1 μg/ml×[…] per well overnight at 4° C.) at room temperature (RT) for 1 h. The plate was washed three times with PBS containing 0.1% Tween (PBST), followed by incubation with KDR-AP fusion protein at RT for additional 1 h. The plate-bound KDR-AP was then quantified by the addition of AP substrate, p-nitrophenyl phosphate (Sigma, St. Louis, Mo.), followed by reading of the absorbance at 405 nm (Lu, D. et al., 1999). In the second, direct binding assay, various amounts of diabody or scFv were added to KDR or Flt-1 coated 96-well plates and incubated at RT for 1 h, after which the plates were washed 3 times with PBST. The plates were then incubated at RT for 1 h with 100 μl of an anti-E tag antibody-HRP conjugate (Amersham Pharmacia Biotech). The plates were washed, peroxidase substrate added, and the absorbance at 450 nm read following the procedure described previously (Lu, D. et al., 1999).
(§3) The antigen binding efficiency of the diabody was determined on immobilized KDR and Flt-1. […]

[4] = target: T2, Flt-1-Fc fusion protein (UniProt P17948 27-756, limits assumed); experiment: direct binding ELISA on immobilized Flt-1, detection with anti-E tag antibody-HRP, A450
T2 construct: Bought from R&D Systems; also called immobilized Flt-1; not shown: Fc
T2 sequence (P17948 27-756 limits assumed): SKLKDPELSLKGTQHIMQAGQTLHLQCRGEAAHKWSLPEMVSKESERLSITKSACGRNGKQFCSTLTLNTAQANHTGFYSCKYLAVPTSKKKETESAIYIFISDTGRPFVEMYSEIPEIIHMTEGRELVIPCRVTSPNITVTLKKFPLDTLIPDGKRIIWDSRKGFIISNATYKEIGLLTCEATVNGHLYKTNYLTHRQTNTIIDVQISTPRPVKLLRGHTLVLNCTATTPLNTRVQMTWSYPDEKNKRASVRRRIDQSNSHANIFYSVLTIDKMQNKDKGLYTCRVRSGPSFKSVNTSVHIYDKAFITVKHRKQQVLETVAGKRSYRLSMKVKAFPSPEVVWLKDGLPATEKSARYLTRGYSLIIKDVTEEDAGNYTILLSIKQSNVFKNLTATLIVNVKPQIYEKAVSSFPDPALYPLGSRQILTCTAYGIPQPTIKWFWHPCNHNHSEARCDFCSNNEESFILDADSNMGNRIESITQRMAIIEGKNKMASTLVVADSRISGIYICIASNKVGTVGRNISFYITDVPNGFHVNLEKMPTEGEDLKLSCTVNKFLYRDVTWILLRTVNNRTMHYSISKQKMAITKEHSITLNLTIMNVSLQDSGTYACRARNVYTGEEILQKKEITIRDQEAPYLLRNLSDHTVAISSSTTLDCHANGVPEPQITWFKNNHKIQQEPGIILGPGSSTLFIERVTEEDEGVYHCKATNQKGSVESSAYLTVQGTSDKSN
Protocol: as §2, §3

[5] = target: T2, Flt-1-Fc fusion protein; experiment: BIAcore SPR, Flt-1-Fc immobilized on the chip, antibody injected
Protocol: as §1

[6] = target: T2, Flt-1-Fc fusion protein; experiment: blocking ELISA: antibody pre-mixed with Flt-1-Fc, transferred to immobilized PlGF; plate-bound Flt-1-Fc detected with anti-human Fc-HRP, A450
Protocol: The assays followed previously described protocols (Zhu, Z. et al., 1998; Lu, D. et al., 1999). Briefly, various amounts of the diabody or scFv were mixed with a fixed amount of KDR-AP (100 ng) or Flt-1-Fc fusion protein (50 ng) and incubated at RT for 1 h. The mixture were then transferred to 96-well microtiter plates precoated with VEGF₁₆₅ (200 ng/well) or PlGF (200 ng/well) and incubated at RT for an additional 2 h, after which the plates were washed 5 times with PBS. For the KDR-AP assay, the substrate for AP was added, followed by reading of the absorbance at 405 nm to quantify the plate-bound KDR-AP. For the Flt-1-Fc assay, the plate was incubated with a mouse anti-human Fc-HRP conjugate to quantify the plate-bound Flt-1-Fc.

T1 sequence (P35968 20-764): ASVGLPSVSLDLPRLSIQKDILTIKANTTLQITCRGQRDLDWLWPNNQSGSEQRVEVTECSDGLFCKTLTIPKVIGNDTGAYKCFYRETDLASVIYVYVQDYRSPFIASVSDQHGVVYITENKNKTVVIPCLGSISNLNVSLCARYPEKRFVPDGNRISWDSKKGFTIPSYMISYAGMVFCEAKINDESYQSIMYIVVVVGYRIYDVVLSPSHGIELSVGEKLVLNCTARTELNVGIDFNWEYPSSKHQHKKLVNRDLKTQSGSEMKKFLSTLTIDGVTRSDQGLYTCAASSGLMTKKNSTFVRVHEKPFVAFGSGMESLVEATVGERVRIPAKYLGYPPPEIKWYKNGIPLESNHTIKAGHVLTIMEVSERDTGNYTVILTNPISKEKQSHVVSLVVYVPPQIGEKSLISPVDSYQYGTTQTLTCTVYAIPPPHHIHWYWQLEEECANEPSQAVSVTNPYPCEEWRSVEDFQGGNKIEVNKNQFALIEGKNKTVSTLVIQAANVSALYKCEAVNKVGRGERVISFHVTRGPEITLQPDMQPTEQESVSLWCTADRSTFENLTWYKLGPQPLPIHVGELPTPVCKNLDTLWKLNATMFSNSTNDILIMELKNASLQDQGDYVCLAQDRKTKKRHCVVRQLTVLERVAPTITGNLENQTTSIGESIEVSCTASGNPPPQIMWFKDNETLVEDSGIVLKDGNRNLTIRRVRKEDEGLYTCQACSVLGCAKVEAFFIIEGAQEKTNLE
Sequence of KDR on human umbilical vein endothelial cells (HUVEC) (P35968 20-1356): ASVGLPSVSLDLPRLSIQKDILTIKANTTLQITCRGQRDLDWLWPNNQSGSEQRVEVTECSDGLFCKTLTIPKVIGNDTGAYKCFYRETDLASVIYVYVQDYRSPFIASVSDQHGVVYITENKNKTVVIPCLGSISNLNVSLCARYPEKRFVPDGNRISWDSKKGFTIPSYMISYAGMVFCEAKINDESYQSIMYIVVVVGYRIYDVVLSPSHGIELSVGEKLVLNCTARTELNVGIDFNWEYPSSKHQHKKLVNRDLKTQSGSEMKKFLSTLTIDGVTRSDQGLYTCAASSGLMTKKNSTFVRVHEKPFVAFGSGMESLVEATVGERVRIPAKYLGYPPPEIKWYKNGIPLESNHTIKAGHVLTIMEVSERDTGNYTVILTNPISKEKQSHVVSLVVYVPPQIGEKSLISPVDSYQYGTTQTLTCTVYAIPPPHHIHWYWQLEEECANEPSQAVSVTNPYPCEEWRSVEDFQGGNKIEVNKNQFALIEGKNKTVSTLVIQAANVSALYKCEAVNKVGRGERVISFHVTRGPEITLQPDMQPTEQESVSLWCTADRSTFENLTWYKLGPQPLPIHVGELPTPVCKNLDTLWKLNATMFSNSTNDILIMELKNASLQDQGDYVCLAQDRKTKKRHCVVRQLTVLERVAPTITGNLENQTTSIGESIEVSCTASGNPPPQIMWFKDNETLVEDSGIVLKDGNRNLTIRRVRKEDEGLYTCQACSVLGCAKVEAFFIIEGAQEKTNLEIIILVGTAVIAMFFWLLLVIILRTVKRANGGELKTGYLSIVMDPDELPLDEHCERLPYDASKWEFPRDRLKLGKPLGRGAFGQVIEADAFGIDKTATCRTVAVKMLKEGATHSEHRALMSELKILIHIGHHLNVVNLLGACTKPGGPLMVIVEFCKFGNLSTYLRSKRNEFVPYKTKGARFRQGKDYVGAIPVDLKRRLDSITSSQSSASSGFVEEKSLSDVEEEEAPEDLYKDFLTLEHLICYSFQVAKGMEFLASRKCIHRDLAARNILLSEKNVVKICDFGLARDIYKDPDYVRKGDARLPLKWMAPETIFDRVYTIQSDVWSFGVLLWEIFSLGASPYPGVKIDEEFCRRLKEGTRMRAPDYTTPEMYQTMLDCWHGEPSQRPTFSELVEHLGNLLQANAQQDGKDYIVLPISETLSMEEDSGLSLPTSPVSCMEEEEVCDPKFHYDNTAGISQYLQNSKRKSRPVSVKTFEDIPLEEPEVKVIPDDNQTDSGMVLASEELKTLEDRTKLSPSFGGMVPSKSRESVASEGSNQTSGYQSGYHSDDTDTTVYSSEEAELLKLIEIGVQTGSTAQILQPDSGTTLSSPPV

B1: scFv p1C11 (scFv)
scFv: QVKLQQSGAELVGSGASVKLSCTTSGFNIKDFYMHWVKQRPEQGLEWIGWIDPENGDSDYAPKFQGKATMTADSSSNTAYLQLSSLTSEDTAVYYCNAYYGDYEGYWGQGTTVTVSSGGGGSGGGGSGGGGSDIELTQSPAIMSASPGEKVTITCSASSSVSYMHWFQQKPGTSPKLWIYSTSNLASGVPARFSGSGSGTSYSLTISRMEAEDAATYYCQQRSSYPFTFGSGTKLEIK
notes: soluble form made in E. coli; also called KDR-specific scFv p1C11
VEGF-stimulated HUVEC mitogenesis ([3H]-TdR incorporation), IC50 [1]: ~2 nM | Kd [2]: 1.68 nM | koff [2]: 0.000121 s⁻¹ | kon [2]: 74200 M⁻¹ s⁻¹ | EC50 (read off the curve) [3]: ~0.4 nM | binding result [4]: no binding (tested: about 50 nM)

B2: scFv 6.12 (scFv, not shown: small tags and cut ends)
scFv: QVKLQQSGAELVKPGASVKLSCTASGFNIKDTYIHWVKQSPEQGLEWIGRIDPPNDNTKYDPKFQGKATITADTSSNTAYMQLRSLTSEDTAVYYCALPPFYFDYWGHGTTVTVSSGGGGSGGGGSGGGGSDIELTQSPKFMSTSVGDRVSVTCKASQNVDTNVAWYQQKPGQSPKALIYSASYRYSGVPDRFTGSGSGTDFTLTISNVQSEDLAEYFCQQYNSFPYTFGGGTKLEIK
modifications: The soluble scFv from pCANTAB 5E carried a C-terminal E tag (detected with anti-E tag) whose letters the patent does not give; it is left out.
notes: VH-(GGGGS)3-VL, expressed from pCANTAB 5E in E. coli
Kd [5]: 9.8 nM | koff [5]: 0.00236 s⁻¹ | kon [5]: 241000 M⁻¹ s⁻¹ | EC50 (read off the curve) [4]: ~0.6 nM | IC50 (read off the curve) [6]: ~1 nM

Reference: patent publication US20040242851A1 (published 2004)
